One series has as its target T1, FUT9 (Homo sapiens, UniProt Q9Y231).
T1 construct: purchased Bio-Techne (Minneapolis, MN)
T1 sequence (Q9Y231 1-359): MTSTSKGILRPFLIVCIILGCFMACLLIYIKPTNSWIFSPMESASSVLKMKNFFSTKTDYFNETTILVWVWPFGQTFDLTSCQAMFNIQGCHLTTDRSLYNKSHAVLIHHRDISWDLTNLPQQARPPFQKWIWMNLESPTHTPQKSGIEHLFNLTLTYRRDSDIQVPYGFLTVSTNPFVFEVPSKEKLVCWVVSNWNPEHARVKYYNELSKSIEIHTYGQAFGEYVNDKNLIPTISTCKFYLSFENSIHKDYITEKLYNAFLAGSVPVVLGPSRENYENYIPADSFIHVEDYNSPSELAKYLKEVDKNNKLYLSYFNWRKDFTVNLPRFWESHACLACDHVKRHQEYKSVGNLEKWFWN
As to the kind of experiment: Fluorescent labeling with fluorophore-conjugated fucose by FUT9. Format: biochemical. As to conditions: 0.3 μg FUT9, 0.2 nmol donor, 30 μl, 37° C., FIG. 17. As for the experimental part: (§1) FIG. 9A-FIG. 9B show exemplary results of probing substrate glycans of various fucosyltransferases on fetuin and asialofetuin. FIG. 9A. Probing substrate glycans of fucosyltransferases with guanosine 5′-diphosphate activated Cy5 conjugated fucose (GDP-Cy5-Fuc). […] FUT9 labeled itself (indicated by an arrow in the gel). FIG. 9B. Tolerance of Alexa-Fluor®555 (555), Alexa-Fluor®488 (488), and Cy5 by the indicated fucosyltransferases. All reactions were incubated at 37° C. for 30 minutes and then separated on SDS-PAGE and imaged with silver staining (upper panels) and fluorescent imager (lower panels). M, molecular marker.
FIG. 10A-FIG. 10D show exemplary results of probing core-6 fucosylation on antibodies by FUT8 incorporation of fluorophores. FIG. 10A. Results of probing substrate glycans of FUT8 (F8) and FUT9 (F9) on Cantuzumab, an anti-Muc1 therapeutic antibody, and NIST reference mAb 8671 using guanosine 5′-diphosphate activated Alexa-Fluor®555 conjugated fucose (GDP-AF555-Fuc) (555), GDP-Cy5-fucose (Cy5), and guanosine 5′-diphosphate activated Alexa-Fluor®488 conjugated fucose (GDP-AF488-Fuc) (488) as donor substrates. Cantuzumab was expressed in FUT8 knockout cells and is devoid of core-6 fucose. Molecular marker (MM) is a prestained Western molecular marker (Bio-Rad Laboratories, Hercules, CA). […] The product of each reaction was separated using SDS-PAGE and imaged with trichloroethanol (TCE) staining (upper panel) and fluorescent imager (lower panel). Labeling on the light chains of the antibodies by Alexa-Fluor®555 is likely the result of non-specific staining due to the use of unpurified GDP-AF555-Fuc that contained free Alexa-Fluor®555. FIG. 10B. […] FIG. 10C. […] FIG. 10D. Schematics of the glycan structures analyzed in FIG. 10B and FIG. 10C.
Mouse IgG (R&D Systems, Minneapolis, MN) was digested with Endo S thoroughly and labeled with 0.3 μg of FUT9 and 0.2 nmol of GDP-Cy5-Fuc in 30 μl at 37° C. for the indicated time points. The glycans were also pretreated with B4GalT2 for 5 minutes at 37° C. and then labeled in the same way. The reactions were separated on 15% SDS PAGE. B4GalT2 pretreatment converted all G1′ to G2′. Maximal labeling on G1′ and G2′ were achieved around 30 minutes. […] The heavy chain (HC) and light chain (LC) were visible in the TCE image. M, Western blot marker (Bio-Rad Laboratories, Hercules, CA).
(§2) For a typical labeling reaction, 1 μg to 5 μg target protein was mixed with 0.2 nmol GDP-f-Fuc and 0.2 μg of a fucosyltransferase in 30 μL buffer of 25 mM Tris pH 7.5, 10 mM MnCl2. The mixture was incubated at 37° C. for 30 minutes. The reaction was then separated by sodium dodecyl sulfate—polyacrylamide gel electrophoresis (SDS-PAGE) and the gel was directly imaged using a fluorescent imager FluorChem M ProteinSimple, Bio-Techne, Minneapolis, MN), followed by imaging with traditional protein imaging methods such as silver staining or trichloroethanol (TCE) staining.
The four enzymes tolerated the three fluorophores to different levels.

Series [1] concerns fetal bovine fetuin and asialofetuin. The series is described as follows: Labeling of fetuin and asialofetuin by fucosyltransferases with GDP-Cy5-Fuc. Format: biochemical. As to conditions: GDP-Cy5-Fuc donor, FIG. 9A. The procedure: as §1, §2
The labeled samples were then separated on SDS-PAGE, followed by traditional protein gel imaging and fluorescent imaging.

Series [2] can be described thus: Enzymatic synthesis of Le^x and sLe^x by glycan gel electrophoresis, substrate G2. Format: biochemical. Particulars: for Relative activity: normalized to FUT6 on sLe^x synthesis. The procedure:
FIG. 21A. Schematic view of the enzymatic steps for Le^X and sLe^X synthesis on the antibody glycan G0. The glycan short names follow that of FIG. 10. FIG. 21B Kinetic comparison of galactosylation on G0 by B4GalT1, sialyation on G2 by ST3Gal4 and ST6Gal1, and fucosylation on A2[3] by FUT7. The reaction time for B4GalT1 was 10 minutes. The reaction time for ST3Gal4, FUT7 and ST6Gal1 was 5 hours. In each case, the labeling enzyme was subject to a 3-fold serial dilution starting from 1 μg each of B4GalT1, FUT7 and ST6Gal1, and 3 μg ST3Gal4. FIG. 21C. […] Reaction time for both cases was 20 minutes. […] FIG. 21D. […] Reaction time for both cases was 20 minutes.
For a typical labeling reaction, 1 μg to 5 μg target protein was mixed with 0.2 nmol fluorophore-conjugated GDP-fucose and 0.2 μg of a fucosyltransferase in 30μL 25 mM Tris pH 7.5, 10 mM MnCl2. The mixture was incubated at 37° C. for 30 minutes. […] To release labeled glycans from a glycoprotein, the sample was first denatured by heating at 95° C. for two minutes in the presence of 0.5% SDS and 80 mM β-mercaptoethanol and then renatured with 1% Triton X-100, and finally treated with PNGase F at 10:1 mass ratio at 37° C. for 20 minutes. To release glycans from antibody, a sample was directly treated with Endo S at 10:1 mass ratio at 37° C. for 20 minutes. All samples were separated by sodium dodecyl sulfate—polyacrylamide gel electrophoresis (SDS-PAGE) at […]. For separating labeled glycoproteins and antibodies, 4-20% gradient SDS gel was used. For separating labeled free glycans, 15% or 17% gel was used. After separation, all gels were imaged using a FluorChem M imager (ProteinSimple, Bio-Techne, Minneapolis, MN). For glycoproteins samples, the gel was also imaged with traditional methods such as silver staining or trichloroethanol (TCE) staining.
For sLe^x synthesis, G0 was first converted to G2 by B4GalT1, then converted to A2[3] by ST3Gal4, and finally converted to A2[3]F2 (carrier of sLe^x) by FUT7 (FIG. 21A). During these steps, different amounts of enzymes, and multiple reaction times were applied to reveal the intermediate products.
Intermediate products are signs for the progress of each enzymatic step.

In series [3] the test system is fetal bovine fetuin and asialofetuin. As to the kind of experiment: Labeling of fetuin and asialofetuin by sialyltransferases with CMP-f-SA. As to conditions: CMP-f-SA donors, FIG. 2. Format: biochemical.
The test system of a further series is asialofetuin. The series is described as follows: Asialofetuin labeling with variable amounts of ST3Gal1 or ST6Gal1 (FIG. 7). Format: biochemical, bovine. As to conditions: 5 μg asialofetuin, 0.2 nmol CMP-Cy5-SA, 30 μL, 37° C., 30 minutes.

Data on five molecules can be found in US20240168030A1, “DIRECT FLUORESCENT GLYCAN LABELING” (BIO-TECHNE CORPORATION, priority 2019, published 2024).

In the case of “guanosine 5′-diphosphate activated Cy5 conjugated fucose [GDP-Cy5-Fuc]”, the “Time to maximal labeling of B4GalT2 by FUT9” value at FUT9 was 20 min. Besides, the “Time to maximal labeling on G1′ and G2′ by FUT9” value at FUT9 (Endo S digested mouse IgG) was “around 30 minutes”.

B1: FUT9: recombinant α-3 fucosyltransferase strictly active on lactosamine (protein, UniProt Q9Y231 1-359, looked up)
4-galactosyl-N-acetylglucosami …: T1 sequence (Q9Y231 1-359)
As for B1, the “Which of fetuin and asialofetuin the fucosyltransferase labeled” value in series [1] was “labeled asialofetuin”. Also, in series [2] (substrate G2, completed product Le^x), the “Activity based on reaction completion” value was 2.3 pmol/min/µg. Moreover, the Relative activity in series [2] (substrate G2, product Le^x) was 17.

B2: α-2,6-sialyltransferase 1 (protein, UniProt P15907 1-406, looked up)
Beta-galactoside …: MIHTNLKKKFSCCVLVFLLFAVICVWKEKKKGSYYDSFKLQTKEFQVLKSLGKLAMGSDSQSVSSSSTQDPHRGRQTLGSLRGLAKAKPEASFQVWNKDSSSKNLIPRLQKIWKNYLSMNKYKVSYKGPGPGIKFSAEALRCHLRDHVNVSMVEVTDFPFNTSEWEGYLPKESIRTKAGPWGRCAVVSSAGSLKSSQLGREIDDHDAVLRFNGAPTANFQQDVGTKTTIRLMNSQLVTTEKRFLKDSLYNEGILIVWDPSVYHSDIPKWYQNPDYNFFNNYKTYRKLHPNQPFYILKPQMPWELWDILQEISPEEIQPNPPSSGMLGIIIMMTLCDQVDIYEFLPSKRKTDVCYYYQKFFDSACTMGAYHPLLYEKNLVKHLNQGTDEDIYLLGKATLPGFRTIHC
notes: recombinant human sialyltransferase, N-glycan specific
On to B2, for which the “Which of fetuin and asialofetuin the sialyltransferase labeled” value in series [3] is on record as “only labeled asialofetuin”. Besides, in the series on asialofetuin, the “Enzyme amount achieving maximal labeling of asialofetuin” value worked out at 0.25 µg and the “Enzyme amount showing clear visible labeling on asialofetuin” value worked out at 0.016 µg. The “Time for the complete conversion of G2 to A2[6]” value in series [2] (FIG. 21B) is 5 h. Moreover, the “Activity based on reaction completion” value in series [2] (substrate G2, completed product A2[6]) was 0.025 pmol/min/µg. In series [2] (substrate G2, product A2[6]), this molecule had a Relative activity of 0.19.

B3: α-2,3-sialyltransferase 1 (protein, UniProt Q11201 1-340, looked up)
CMP-N-acetylneuraminate-beta-g …: MVTLRKRTLKVLTFLVLFIFLTSFFLNYSHTMVATTWFPKQMVLELSENLKRLIKHRPCTCTHCIGQRKLSAWFDERFNQTMQPLLTAQNALLEDDTYRWWLRLQREKKPNNLNDTIKELFRVVPGNVDPMLEKRSVGCRRCAVVGNSGNLRESSYGPEIDSHDFVLRMNKAPTAGFEADVGTKTTHHLVYPESFRELGDNVSMILVPFKTIDLEWVVSAITTGTISHTYIPVPAKIRVKQDKILIYHPAFIKYVFDNWLQGHGRYPSTGILSVIFSMHVCDEVDLYGFGADSKGNWHHYWENNPSAGAFRKTGVHDADFESNVTATLASINKIRIFKGR
notes: recombinant human sialyltransferase, Core-1 O-glycan specific
Regarding B3, in series [3], the “Which of fetuin and asialofetuin the sialyltransferase labeled” value is given as “only labeled asialofetuin”. For the same molecule, in the series with asialofetuin, the “Enzyme amount achieving maximal labeling of asialofetuin” value amounted to 0.5 µg and the “Enzyme amount showing clear visible labeling on asialofetuin” value came to 0.063 µg.

B4: FUT2: recombinant fucosyltransferase, α1-2 linked fucose (protein, UniProt Q10981 1-343, looked up)
Galactoside …: MLVVQMPFSFPMAHFILFVFTVSTIFHVQQRLAKIQAMWELPVQIPVLASTSKALGPSQLRGMWTINAIGRLGNQMGEYATLYALAKMNGRPAFIPAQMHSTLAPIFRITLPVLHSATASRIPWQNYHLNDWMEEEYRHIPGEYVRFTGYPCSWTFYHHLRQEILQEFTLHDHVREEAQKFLRGLQVNGSRPGTFVGVHVRRGDYVHVMPKVWKGVVADRRYLQQALDWFRARYSSLIFVVTSNGMAWCRENIDTSHGDVVFAGDGIEGSPAKDFALLTQCNHTIMTIGTFGIWAAYLTGGDTIYLANYTLPDSPFLKIFKPEAAFLPEWTGIAADLSPLLKH
With B4, in series [1], the “Which of fetuin and asialofetuin the fucosyltransferase labeled” value is “labeled asialofetuin”.
